Experimental data: patent WO2007044695A2 (dated 2007)

Target: GD03-S1(318-510)-C9 protein (SARS-CoV GD03 (GD03T0013), UniProt P59594 318-510)
Assay: ELISA, serial dilutions of coated S1-(318-510)-C9 protein, 0.5 ug/ml IgG1

B1: 11A IgG1 (antibody, V domains shown)
VH: EVQLVQSGAEVKKPGESLKISCKGSGYSFTSYWIGWVRQMPGKGLEWMGIINPDNSDTRFSPSLQGQVTISVDKSINTVYLQWGSLKASDTAMYYCARQGDYSGPSINYWGQGTLVTVSS
VL: QSVLTQPASVSGSPGQSITISCTGTSSDVGGYNYVSWYQQHPGKAPKLMIYDVSKRPSGIPERFSGSNSGNTATLTISGTQAMDEADYYCQAWDSNTYVFGTGTKVTVLV
binding result: binds
